Laboratory results as given in article PMC11294453, “Cryo-EM structure of a conjugative type IV secretion system suggests a molecular switch regulating pilus biogenesis” (The EMBO Journal, 2024).

B1: TrwK/VirB4 (enzyme)
chain: MGAIESRKLLASETPVGQFIPYSHHVTDTIISTKNAEYLSVWKIDGRSHQSASEADVFQWIRELNNTLRGISSANLSLWTHIVRRRVYEYPDAEFDNVFCRQLDEKYRESFTGYNLMVNDLYLTVVYRPVSDKVLSFFAKRERETPDQKKHRQESCIKALEDINRTLGQSFKRYGAELLSVYEKGGHAFSAPLEFLARLVNGEHIPMPICRDRFSDYMAVNRPMFSKWGEVGELRSLTGLRRFGMLEIREYDDATEPGQLNVLLESDYEFVLTHSFSVLSRPAAKEYLQRHQKNLIDARDVATDQIEEIDEALNQLISGHFVMGEHHCTLTVYGETVQQVRDNLAHASAAMLDVAVLPKPVDLALEAGYWAQLPANWQWRPRPAPITSLNFLSFSPFHNFMSGKPTGNPWGPAVTILKTVSGTPLYFNFHASKEEEDATDKRLLGNTMLIGQSSSGKTVLLGFLLAQAQKFKPTIVAFDKDRGMEISIRAMGGRYLPLKTGEPSGFNPFQLPPTHANLIFLKQFVKKLAAAGGEVTHRDEEEIDQAITAMMSDSIDKSLRRLSLLLQFLPNPRSDDMDARPTVHARLVKWCEGGDYGWLFDNPTDALDLSTHQIYGFDITEFLDNPEARTPVMMYLLYRTESMIDGRRFMYVFDEFWKPLQDEYFEDLAKNKQKTIRKQNGIFVFATQEPSDALESNIAKTLIQQCATYIFLANPKADYEDYTQGFKLTDSEFELVRGLGEFSRRFLIKQGDQSALAEMNLGKFRTIVDGETVERDFDDELLVLSGTPDNAEIAESIIAEVGDDPAVWLPIFLDRVKAERSDV
notes: TrwK, the VirB4 ATPase of the type IV secretion system encoded by the conjugative plasmid R388; also called TrwK/VirB4_(central); TrwK/VirB4_(outside); source: R388 T4SS complexes expressed and purified from membranes as described previously (Mace et al, 2022)
B4: TrwE/VirB10 (natural protein)
chain: MFGRKKGDVIDAGAELERAEQERIEGEYGASELASERRPHTPGARTLLMVLLCVIAVVLVTLSYKAYKVRGVVEDDDAQPQQVVRQVIPGYTPRPIRPEPENVPEPPQPTTSVPAIQPAPVTQPVRPQPTGPREKTPYELARERMLRSGLTAGSGGGEDLPRPQGGDVPAGGLMGGGGGGGELAEKLQPMRLSGSSAGRLGNRDMLITQGTQLDCVLETRLVTTQPGMTTCHLTRDVYSTSGRVVLLDRGSKVVGFYQGGLRQGQARIFVQWSRIETPSGVVINLDSPGTGPLGEAGLGGWIDRHFWERFGGAIMISLIGDLGDWASRQGSRQGNNSIQFSNTANGVESAAAEALRNSINIPPTLYKNQGERVNILVARDLDFSDVYSLESIPTK
notes: TrwE, the VirB10 homologue of the type IV secretion system encoded by the conjugative plasmid R388; residues 21-69, 83-101, 135-153 and 177-395 are described in the structures; the first 20 residues are invisible; also called TrwE/VirB10NTD; VirB10NT; source: R388 T4SS complexes expressed and purified from membranes as described previously (Mace et al, 2022)
B5: TrwF/VirB9 (natural protein)
chain: LDVPSSSRYDHRIRYVTYNPADVVQVDTVLGVATHIMLEEGEQYLTHAFGIPKPMPLPGRAGIFLSSRTAELANTNLIVVTDRRSYKFRLQMRNDRNGAMYELAFRYPDTQARQTREANARAAVEAAFEQRVGAYYNLKYMMSGDKDIAPVNAWDDGRFTYFKFSANADLPSIYFVDAEGNESLVPRTTVGSSNNIIAVHKVNPKWMIRLGNRALAIFNEAYDPNGVPNDTGTASPAVRRVNKGGN
notes: TrwF, the VirB9 homologue of the type IV secretion system encoded by the conjugative plasmid R388; NTD in the I-layer, CTD in the O-layer, linker helix residues 128 to 150; also called TrwF/VirB9NTD; VirB9CTD; source: R388 T4SS complexes expressed and purified from membranes as described previously (Mace et al, 2022)
B6: TrwI/VirB6 (natural protein)
chain: MAFELFTPLFNKIDQTTATYVTDISSRAIAAITPVVSVGLTLGFITYGWLIIRGAVEMPVAEFLNRCLRIGIIVSIALAGGLYQGEIANAITTVPDELASALLGNPTEGASAAALVDQSAQQGFDRASEAFEEAGFFSSDGLLYGLFGIIIPAGYGPAGAIGGAFLLLAKIALALLAGLGPLFILALIWQPTHRFFDQWAQQVLNYGLLIVLFAAVFGLLMQIFGSYMADLRFDGAQNVAYAIGGSVILSIVSIVLLMQLPSIASGLAGGIGLGYMWELRSMRSGAGAAMRGGRAMARGARAAPGAARGAAVGAANMAKTVATGGAGVARAAAGYFRGRKAG
notes: TrwI, the VirB6 homologue of the type IV secretion system encoded by the conjugative plasmid R388; TM region (α1 and α2) is residues 30-82; also called TrwI/VirB6TM; VirB6_(α1α2TM); source: R388 T4SS complexes expressed and purified from membranes as described previously (Mace et al, 2022)

Tests used:
[1] = molecular target: the molecule itself; assay: cryo-EM structure; R388 T4SS complex purified from membranes; extended IMC protomer map without symmetry, 3.83 Å, with the Stalk-Arches-IMC map at 4.33 Å
TrwI/VirB6 = molecular target: B6; assay: cryo-EM structure; R388 T4SS complex purified from membranes; Stalk map with C5 symmetry applied, 2.97 Å; settings: both partners purified
TrwE/VirB10 [2] = molecular target: B4; assay: cryo-EM structure; R388 T4SS complex purified from membranes; extended IMC protomer map without symmetry, 3.83 Å, with the Stalk-Arches-IMC map at 4.33 Å; settings: both partners purified
TrwK/VirB4 = molecular target: B1; assay: as above; settings: both partners purified
[3] = molecular target: the molecule itself; assay: cryo-EM structure; R388 T4SS complex purified from membranes; OMCC maps: O-layer with C14 symmetry (2.46 Å), I-layer with C16 symmetry (2.69 Å), OMCC conformations A, B and C without symmetry
TrwE/VirB10 [4] = molecular target: B4; assay: as above; settings: both partners purified
TrwF/VirB9 = molecular target: B5; assay: as above; settings: both partners purified
TrwE/VirB10 [5] = molecular target: B4; assay: cryo-EM structure; R388 T4SS complex purified from membranes; Arches map without symmetry, 6.22 Å; secondary structures only, no side chains; settings: both partners purified
[6] = molecular target: the molecule itself; assay: as above

## B1
[1]
  binding result: binds

B2: TrwJ/VirB5 (natural protein, UniProt O50331 23-226, looked up)
chain: QGIPVFDGTRALDFVQQFARMKEQLDTAKDQLAEAQRMYEAVTGGRGLGDLMRNAQLREYLPDDLRTVYDSANGGGYSGISGSINDILRDERLNGSVADMRRSIEERSRTARTTDKAVGCGPTKGHSNASRRLKDEISRTQDQKAIEELQARIAGEQAAIQNETTKLQMIAQLRQAEQALISEQRRERNMPILSSGNQGMPTIQ
notes: TrwJ, the VirB5 homologue of the type IV secretion system encoded by the conjugative plasmid R388; residues Gln23-Ala33 newly built; source: R388 T4SS complexes expressed and purified from membranes as described previously (Mace et al, 2022)
TrwI/VirB6
  binding result: binds

B3: TrwM/VirB3 (natural protein)
chain: MKPPQQQHEAFPLFKGATRLPTILGEPMIPLMAMVMGVAVIALTVSIWWWALVPPLWFIMAQITKNDDKAFRIWWLWIDTKFRNRNKGFWGASSYSPANYRKRR
notes: TrwM, the VirB3 homologue of the type IV secretion system encoded by the conjugative plasmid R388; source: R388 T4SS complexes expressed and purified from membranes as described previously (Mace et al, 2022)
TrwE/VirB10 [2]
  binding result: binds
TrwK/VirB4
  binding result: binds

## B4
TrwK/VirB4
  binding result: binds
[3]
  binding result: binds

## B5
TrwE/VirB10 [4]
  binding result: binds

## B6
TrwE/VirB10 [2]
  binding result: binds

B7: TrwH/VirB7 (natural protein, UniProt O50334 17-47, looked up)
chain: CASAPKPKQPSDFNREPVNKTVPVEIQRGAL
notes: TrwH, the VirB7 homologue of the type IV secretion system encoded by the conjugative plasmid R388; source: R388 T4SS complexes expressed and purified from membranes as described previously (Mace et al, 2022)
TrwE/VirB10 [4]
  binding result: binds
TrwF/VirB9
  binding result: binds

B8: TrwG/VirB8 (natural protein)
chain: MSKKQPKPVKAEQLKSYYEESRGLERDLIGEFVKSRKTAWRVATASGLFGLLGMVCGIVGFSQPAPAPLVLRVDNATGAVDVVTTLREHESSYGEVVDTYWLNQYVLNREAYDYNTIQMNYDTTALLSAPAVQQDYYKLFDGSNARDRVLGNKARITVRVRSIQPNGRGQATVRFTTQQHNSNGTVERPQHQIATIGYTYIGAPMRSSDRLLNPLGFQVTSYRADPEILNN
notes: TrwG, the VirB8 homologue of the type IV secretion system encoded by the conjugative plasmid R388; also called TrwG/VirB8_(peri); TrwG/VirB8_(tail); source: R388 T4SS complexes expressed and purified from membranes as described previously (Mace et al, 2022)
TrwE/VirB10 [5]
  binding result: binds
[6]
  stoichiometry N: 24 subunits
TrwK/VirB4
  binding result: binds
